Results on 29 molecules are retold here after patent US20210395381A1 (OSSIANIX, published 2021).

In experiment [1] the target is T1, recombinant mouse TfR-1 (mouse, UniProt Q62351 89-763).
T1 construct: Bought recombinant protein; also called mTfR1
Description: phage ELISA. How it is done:
(§1) After the third round of selection, instead of pooling bacterial colonies, individual phagemid clones were grown in 1 ml of 2TY medium containing glucose and ampicillin in 96-well blocks and used to rescue the phages. After an overnight culturing, bacteria were spun down and an aliquot of the phage supernatant was sent for Sanger sequencing (Genewiz); VNAR CDR3 sequences were identified using BioEdit (a sequence alignment editor). Another aliquot was blocked with 2.5% milk for phage ELISAs. High-binding ELISA plates (Greiner) were coated with 1 μg/ml of recombinant human or mouse TfR-1. The plates were then blocked with 2.5% milk in PBST. Blocked phages were added to the blocked plates and the VNAR-phage clones binding to the antigens were detected with HRP-labelled anti-M13 coat protein antibodies (Sino Biological), and chromogenic TMB substrate (KLM)
A general note: In an ELISA, binding on a coated surface is turned into a signal by an enzyme label.

Experiment [2] addresses T2, recombinant human TfR-1 (human, UniProt P02786 89-760).
T2 construct: extracellular domain; also called hTfR1; human transferrin receptor-1
The experiment can be described thus: phage ELISA. How it is done: as §1

T2 sequence (P02786 89-760): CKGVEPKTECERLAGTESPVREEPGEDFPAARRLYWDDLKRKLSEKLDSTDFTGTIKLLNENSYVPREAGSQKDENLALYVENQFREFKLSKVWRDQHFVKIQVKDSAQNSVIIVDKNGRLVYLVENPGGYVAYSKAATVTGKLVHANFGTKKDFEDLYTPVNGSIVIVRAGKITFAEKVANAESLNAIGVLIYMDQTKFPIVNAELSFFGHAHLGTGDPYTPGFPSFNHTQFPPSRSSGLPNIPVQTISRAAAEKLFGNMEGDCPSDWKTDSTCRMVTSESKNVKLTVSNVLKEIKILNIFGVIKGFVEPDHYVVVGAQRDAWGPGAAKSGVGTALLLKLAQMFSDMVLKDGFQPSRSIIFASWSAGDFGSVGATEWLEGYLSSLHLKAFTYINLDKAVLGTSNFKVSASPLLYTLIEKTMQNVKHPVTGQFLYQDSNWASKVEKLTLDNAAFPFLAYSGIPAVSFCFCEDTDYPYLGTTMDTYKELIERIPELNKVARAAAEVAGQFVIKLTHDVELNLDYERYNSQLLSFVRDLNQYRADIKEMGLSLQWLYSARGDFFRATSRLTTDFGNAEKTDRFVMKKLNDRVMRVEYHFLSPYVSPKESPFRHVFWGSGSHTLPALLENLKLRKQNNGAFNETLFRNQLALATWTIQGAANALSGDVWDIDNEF
T1 sequence (Q62351 89-763 limits assumed): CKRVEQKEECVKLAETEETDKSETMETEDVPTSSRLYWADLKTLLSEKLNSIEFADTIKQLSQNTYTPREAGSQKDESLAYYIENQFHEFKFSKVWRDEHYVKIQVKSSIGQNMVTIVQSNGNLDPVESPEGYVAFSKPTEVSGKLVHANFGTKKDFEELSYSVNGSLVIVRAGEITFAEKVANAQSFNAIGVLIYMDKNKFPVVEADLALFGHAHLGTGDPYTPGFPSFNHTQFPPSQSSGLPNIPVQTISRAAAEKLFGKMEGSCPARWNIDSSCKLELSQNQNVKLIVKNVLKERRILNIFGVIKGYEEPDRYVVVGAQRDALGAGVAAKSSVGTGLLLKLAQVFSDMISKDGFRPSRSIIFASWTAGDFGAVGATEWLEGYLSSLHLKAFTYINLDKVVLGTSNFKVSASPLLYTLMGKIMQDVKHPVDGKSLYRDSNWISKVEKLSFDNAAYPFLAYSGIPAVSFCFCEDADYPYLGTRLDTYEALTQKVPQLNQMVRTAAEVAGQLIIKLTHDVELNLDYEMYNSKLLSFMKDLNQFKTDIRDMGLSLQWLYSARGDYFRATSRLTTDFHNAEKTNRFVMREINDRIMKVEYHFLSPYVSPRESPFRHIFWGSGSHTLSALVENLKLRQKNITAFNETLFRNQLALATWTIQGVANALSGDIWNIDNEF

B1: Clone 2 (VNAR)
VNAR: ARVDQTPQTITKETGESLTINCVLRDSNCELSSTYWYRKKSDSTNEASISKGGRYVETVNSGSKSFSLKINDLTVEDSGTYRCNVFTSDSYDLGDVYGGGTVVTVNA
notes: VNAR on phage
Regarding B1, the binding result in experiment [1] and in experiment [2] was “binds” in each case.

B2: Clone 40 (VNAR)
VNAR: ARVDQTPQTITKETGESLTINCVLRDSNCALSSTYWYRKKSGSTNEESISKGGRYVETVNSGSKSFSLRINDLTVEDSGTYRCKVVQFEKDCQGLLRQTNDVYGGGTVVTVNA
notes: VNAR on phage
Regarding B2, the binding result in experiment [1] was “no binding”.

B3: Clone 35 (VNAR)
VNAR: ARVDQTPQTITKETGESLTINCVLRDSNCALSSTYWYRKKSDSTNEESISKGGRYVETVNSGSKSFSLRINDLTVKDSGTYRCNVSEDLQAICCWNDVYGDGTAVTVNA
notes: VNAR on phage
Turning to B3, the binding result in experiment [1] is on record as “no binding”.

B4: Clone 37 (VNAR)
VNAR: ARVDQTPQTITKETGESLTINCVLRDSNCALSSTYWYRKKSDSTNEESISKGGRYVETVNSGSKSFSLRINDLTVKDSGTYRCNVSEDLQAICCWNDVYGDGTAVTVNA
notes: VNAR on phage
Take B4: the binding result in experiment [1] was “no binding”.

B5: Clone 1 (VNAR)
VNAR: ARVDQTPQTITKETGESLTINCVLRDNNCALSTTYWYRKKSGSTNEESISLGGRYVETVNSGSKSFSLRINDLTVEDSGTYRCNVSDVVSCDDGWNWLDVYGGGTAVTVNA
notes: VNAR on phage
On to B5, for which the binding result in experiment [1] and in experiment [2] was “binds” each time.

B6: Clone 56 (VNAR)
VNAR: ARVDQTPQTITKETGESLTINCVLRDSNCALSSTYWYRKKSDSTNEESISKGGRYVETVNSGSKSFSLRINDLVVEDSGTYRCNVQSKEKLHCQVVVDVYGGGTAVTVNA
notes: VNAR on phage
Turning to B6, in experiment [1], the binding result is recorded as “no binding”.

B7: Clone 53 (VNAR)
VNAR: ARVDQTPQTITKETGESLTINCVLRDSNCALSSTYWYRKKSDSTNEESISKGGRYVETVNSGSKSFSLRINDLTVKDSGTYRCNVYLQDRPVCSPFNYDVYGGGTAVTVNA
notes: VNAR on phage
With B7, the binding result in experiment [1] is recorded as “no binding”.

B8: Clone 10 (VNAR)
VNAR: ARVDQTPQTITKETGESLTINCVLRDSNCALSNLYWYRKKSGSTNEESISLGGRYVETVNSGSKSFSLRINDLTVEDSGTYRCNVVQYPTAKCRQVDVYGGGTAVTVNA
notes: VNAR on phage
B8: the binding result in experiment [1] and in experiment [2] was “binds” throughout.

B9: Clone 19 (VNAR)
VNAR: ARVDQTPQTITKETGESLTINCVLRDSNCALSSTYWYRKKSGSTNEESISKGGRYVETVNSGSKSFSLRINDLTVEDSGTYRCNVGQAQRLRSNVDDVYGGGTVVTVNA
notes: VNAR on phage
For the molecule B9, the binding result in experiment [1] and in experiment [2] was “binds” each time.

B10: Clone 11 (VNAR)
VNAR: ARVDQTPQTITKETGESLTINCVLRDSNCALPSTYWYRKKSGSTNEESISKGGRYVETVNSGSKSFSLRINDLTVEDSGTYRCNVQWLWSFSCLPCVEDVYGGGTVVTVNA
notes: VNAR on phage
Regarding B10, the binding result in experiment [1] and in experiment [2] was “binds” each time.

B11: Clone 34 (VNAR)
VNAR: PRVDQTPQTITKETGESLTINCVLRDSNCALSSTYWYRKKSGSTNEESISKGGRYVETVNSGSKSFSLRINDLTVEDSGTYRCNVSSNAHCDGRRRDVYGGGTAVTVNA
notes: VNAR on phage
Take B11: in experiment [1], the binding result was “no binding”.

B12: Clone 16 (VNAR)
VNAR: ARVDQTPQTITKETGESLTINCVLRDSNCALSSTYWYRKKSGSTNEENISKGGRYVETVNSGSKSFSLRINDLTVEDSGTYRCKVQSAQGMGLNGCKPGRVDVYGDGTAVTVNA
notes: VNAR on phage
As for B12, the binding result in experiment [1] and in experiment [2] was “binds” each time.

B13: Clone 54 (VNAR)
VNAR: ARVDQTPQTITKETGESLTINCVLRDSNCALPITYWYRKKSGSTNEESISKGGRYVETVNSGSKSFSLRINDLTVKDSGTYRCNVGAQYCDREISDVYGDGTAVTVNA
notes: VNAR on phage
Take B13: the binding result in experiment [1] is listed as “no binding”.

B14: Clone 17 (VNAR)
VNAR: ARVDQTPQTITKETGESLTINCVLRDSNCALSNLYWYRKKSGSTNEESISLGGRYVETVNSGSKSFSLRINDITVEDSGRYRCNVYNFFTYQCRWFQSDVYGDGTAVTVNA
notes: VNAR on phage
Turning to B14, the binding result in experiment [1] and in experiment [2] was “binds” in each case.

B15: Clone 21 (VNAR)
VNAR: ARVDQTPRVTKETGESLTINCVLRDNNCALSTTYWYRKKSGSTNEENISKGGRYVETVNSGSKSFSLRINDLTVEDSGTYRCNVYMTACSNDMDVYGGGTVVTVNA
notes: VNAR on phage
With B15, the binding result in experiment [1] and in experiment [2] was “binds” each time.

B16: Clone 18 (VNAR)
VNAR: ARVDQTPQTITKETGESLTINCVLRDSNCALSSTYWYRKKSDSTNEESISKGGRYVETVNSGSKSFSLRINDLTVEDSGTYRCKVCTGMSCPCLGRRQTDVYGGGTAVTVNA
notes: VNAR on phage
With B16, the binding result in experiment [1] and in experiment [2] was “binds” in each case.

B17: Clone 39 (VNAR)
VNAR: ARVDQTPQTITKETGESLTINCVLRDSNCELSSTYWYRKKSGSTNEESISLGGRYVETVNSGSKSFSLRINDLTVEDSGTYRCNVQSAMLMLCLSRFDVYGGGTAVTVNA
notes: VNAR on phage
As for B17, the binding result in experiment [1] is recorded as “no binding”.

B18: Clone 55 (VNAR)
VNAR: PRVDQTPQTITKETGESLTINCVLRDSNCALSSTLWYRTKSGSRNEESISKGGRYVETVNSGSKSFSLRINDLTVEDSGTYRCNVWCLTLGCSGKWDVYGGGTAVTVNA
notes: VNAR on phage
With B18, in experiment [1], the binding result is reported as “no binding”.

B19: Clone 51 (VNAR)
VNAR: ARVDQTPQTITKETGESLTINCVLRDSNCALSSTLWYRTKSGSRNEESISKGGRYVETVNSGSKSFSLRINDLVVEDSGTYRCKVSHSGLCQYCHDLEDDVYGDGTAVTVNA
notes: VNAR on phage
Turning to B19, the binding result in experiment [1] was “no binding”.

B20: Clone 36 (VNAR)
VNAR: ARVDQTPQTITKETGESLTINCVLRDSNCALPSTYWYRKKSGSTNEESISKGGRYVETVNSGSKSFSLRINDLVVEDSGTYRCNVHCYGGDLHQLDVYGGGTAVTVNA
notes: VNAR on phage
Take B20: the binding result in experiment [1] was “no binding”.

B21: Clone 14 (VNAR)
VNAR: ARVDQTPQTITKETGESLTINCVLRDSNCALPSTYWYRKKSGSTNEESISKGGRYVETVNSGSKSFSLRINDLTVKDSGTYRCNVMVFQVSGDYSRLEDVYGGGTVVTVNA
notes: VNAR on phage
For B21, the binding result in experiment [1] and in experiment [2] was “binds” in each case.

B22: Clone 15 (VNAR)
VNAR: ARVDQTPRSVTKETGESLTINCVLRDASYELGSTCWYRKKSGSTNEESISKGGRYVETVNSGSKSFSLRINDLTVEDGGTYRCGAPRWQMGGQWCDGGTAACRSGMAEVAACGDGTAVTVNA
notes: VNAR on phage
For B22, the binding result in experiment [1] and in experiment [2] was “binds” in each case.

B23: Clone 20 (VNAR)
VNAR: ARVDQTPRSVTKETGESLTINCVLRDSNCALPSTYWYRKKSGSTNEESISKGGRYVETVNSGSKSFSLRINDLTVKDSGTYRCNVKWDCRYQCICVSADVYGDGTAVTVNA
notes: VNAR on phage
Take B23: the binding result in experiment [1] and in experiment [2] was “binds” throughout.

B24: Clone 13 (VNAR)
VNAR: ARVDQTPQTITKQTGESLTINCVLRDSNCALSSTYWYRKKSGSTNEESISLGGRYVETVNSGSKSFSLRINDLTVEDSGTYRCNVRRLQAWGSCRGGDVYGGGTVVTVNA
notes: VNAR on phage
B24: the binding result in experiment [1] and in experiment [2] was “binds” throughout.

B25: Clone 22 (VNAR)
VNAR: ARVDQTPQTITKETGESLTINCVLRDSNCALSNLYWYRKKSGSTNEESISLGGRYVETVNSGSKSFSLRINDLTVEDSGTYRCNVQQQSSGTFYDVYGGGTAVTVNA
notes: VNAR on phage
Turning to B25, the binding result in experiment [1] and in experiment [2] was “binds” throughout.

B26: Clone 58 (VNAR)
VNAR: ARVDQTPQTITKETGESLTINCVLRDSNCELSSTYWYRKKSGSTNEARISKGGRYVETVNSGSKSFSLRINDLTVEDSGTYRCNVGFSQSWGNSVGIVDVYGGGTAVTVNE
notes: VNAR on phage
Turning to B26, the binding result in experiment [1] is listed as “no binding”.

B27: Clone 60 (VNAR)
VNAR: ARVDQTPQTITKETGESLTINCVLRDSNCDLSRTYWYRKKSGSTNEESISKGGRYVETVNSGSKSFSLRINDLTVEDSGTYRCNVYNPGNGWAMYDVYGGGTAVTVNA
notes: VNAR on phage
Regarding B27, in experiment [1], the binding result is “no binding”.

B28: Clone 12 (VNAR)
VNAR: ARVDQTPRSVTKETGESLTINCVLRDASYELGSTCWYRKKSGSTNEESISKGGRYVETVNSGSKSFSLRINDLTVEDGGTYRCGAWSRLSSSWGCDVGLQCMGCWDLWAACGDGTAVTVNA
notes: VNAR on phage
Take B28: the binding result in experiment [1] and in experiment [2] was “binds” throughout.

B29: Clone 52 (VNAR)
VNAR: PRVDQTPQTITKETGESLTINCVLRDSNCALSSTYWYRKKSGSTNEENISKGGRYVETVNSGSKSFSLRINDLTVEDSGTYRCNVAFFACQYKNDVYGGGTVVTVNA
notes: VNAR on phage
As for B29, the binding result in experiment [1] is “no binding”.
